Results as given in publication PMC5288973.

Molecular target: taxol-stabilized microtubules assembled from bovine brain tubulin (bovine) (UniProt Q6B856)
Experiment: co-sedimentation; various amounts of MBP-GPT2 with a constant amount of taxol-stabilized MTs polymerized from 1 uM tubulin heterodimer; fit of q = (qmax x c)/(Kd + c), one GPT2 binding site on the tubulin dimer assumed

MBP-GPT2 (full-length Growing Plus-end Tracking protein 2 fused to maltose-binding protein) (from UniProt Q94B38 69-388) (natural protein)
stoichiometry N (mol of GPT2 per mol of tubulin dimer): 2.5
